The text below walks through data of article PMC5486983.

Substrate in the series: O=C(O)c1c[nH]c2ccccc12
The series is described as follows: LC-MS of adenylate. It is filed as biochemical, Caenorhabditis elegans. The note with it: with ATP and coenzyme A; adenylate formed, no CoA ester.

For orientation: Km means the substrate concentration at which the rate is half of its maximum.

B1: ACS-7 (Caenorhabditis elegans) (protein)
chain: MIFHGEQLENHDKPVHEVLLERFKVHQEKDPDNVAFVTAENEDDSLGFQQLGKKVLQISEWFVENGYKKGDVFLLASYNNWRCFAAALGAWRAGLIVSAAASQFTSFEMNYQIEDSQSQVILVDKHTLPVVQEACKNLKFVKQIISISANPPSPVIKFDVLTSRLVRNLKMPLIDPKNDIVFLPYSSGTTGKPKGVMISHLNFSMMLESSLRFFDANAKAIGLPPDFVLPYDLHFLPMYHAMGMFRTLLTSYRGTTQIMFTKFDMELMLKNIEKYSIMVLSLVPAIAVRMLNSPLLQKYDVSSLVSVTVGSAPFPESASKKLKQLLPNVNIVQGYGMTELTFATHLQSPGSPDGSVGRLVPGTSMKVKKEDGTLCGPHEIGELWIKGPQMMKGYWKKEQQTNELLDEHGFMRTGDIVYFDKNGETFICDRIKELIKVNAKQVAPAELESVILEHDDVADVCVFGVDDASSGERPVACVVSKRGRDMETSKAIMKHINQKLARYKHIKEIEFVSEIMRTGTGKLLRRAMKKAFLDAKKAKL
For the protein B1, the Km stood at 270 ± 90 µM.
